From PMC8511506 (2021)

B1: CYLD CAP-Gly3 (aa 460-582) (domain or fragment)
chain: LAMPPGNSHGLEVGSLAEVKENPPFYGVIRWIGQPPGLNEVLAGLELEDECAGCTDGTFRGTRYFTCALKKALFVKLKSCRPDSRFASLQPVSNQIERCNSLAFGGYLSEVVEENTPPKMEKE
B2: CYLD CAP-Gly2 (aa 226-313) (domain or fragment)
chain: ELPPLEINSRVSLKVGETIESGTVIFCDVLPGKESLGYFVGVDMDNPIGNWDGRFDGVQLCSFACVESTILLHINDIIPALSESVTQE

Biological target: Ubiquitin (UniProt P0CG47 1-76)
Assay: ITC

Binder | Kd
B1 | 319 µM
B2 | 136 µM
